From PMC3078924 come the findings set out here.

The term stoichiometry N denotes a count of units in the complex or per binding partner.

The experiment deals with recombinant ATP synthase subunit β of A. actinomycetemcomitans, as purified (Aggregatibacter actinomycetemcomitans ATCC 700685 (HK1651)). Description: native gel or EMSA; recombinant ATP synthase subunit β on native PAGE, silver stained; three prominent forms.

On to “recombinant ATP synthase subunit β of A. actinomycetemcomitans, as purified (enzyme)”, for which the stoichiometry N is 3.
